According to article PMC2801614, “Promoter Recognition by a Complex of Spx and the C-Terminal Domain of the RNA Polymerase α Subunit” (PLoS ONE, 2010):
Substitutions are numbered along the chain they refer to. Values belong to the binder of their own block, whether it stands above or below them.

Columns and labels:
[1] = molecular target: T1, alphaCTD (C-terminal domain of RNA polymerase alpha subunit);SpxR60E (Bacillus subtilis;Bacillus subtilis, UniProt P20429;O31602 225-314;1-131, |R60E); experiment: EMSA; 5 uM each; SpxR60E also prevents the alphaCTD-DNA complex; EMSA: 20 mM Tris-HCl pH 7.8, 50 mM NaCl, 5 mM MgCl2, 10% glycerol, 5 uM each protein unless stated, room temperature (10 min preincubation, 15 min with probe); conditions: protein: recombinant;recombinant; tags: tag-free after self-cleavable intein/chitin purification;intein (pTYB4), cleaved; cloned via NcoI/SmaI; copies: 1;1; label: 32P-dA at 3' end of the S42 strand (Klenow fill-in); blunt after Klenow fill-in of S42 (35-mer)
T1 sequence 1: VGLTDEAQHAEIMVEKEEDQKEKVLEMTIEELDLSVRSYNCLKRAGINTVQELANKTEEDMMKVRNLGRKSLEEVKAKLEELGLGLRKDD
T1 sequence 2: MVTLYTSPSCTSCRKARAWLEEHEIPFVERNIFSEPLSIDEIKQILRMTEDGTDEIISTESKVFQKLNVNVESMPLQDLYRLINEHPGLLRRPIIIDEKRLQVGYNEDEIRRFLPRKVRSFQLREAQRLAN

[2] = molecular target: T2, alphaCTD (C-terminal domain of RNA polymerase alpha subunit) (Bacillus subtilis, UniProt P20429 225-314); experiment: EMSA; 5 uM alphaCTD; EMSA: 20 mM Tris-HCl pH 7.8, 50 mM NaCl, 5 mM MgCl2, 10% glycerol, 5 uM each protein unless stated, room temperature (10 min preincubation, 15 min with probe); conditions: protein: recombinant; tags: tag-free after self-cleavable intein/chitin purification; label: 32P-dA at 3' end of the S42 strand (Klenow fill-in); blunt after Klenow fill-in of S42 (35-mer)
T2 sequence: T1 sequence 1

[3] = molecular target: T3, Spx wild-type (Bacillus subtilis, UniProt O31602 1-131); experiment: EMSA; 5 uM Spx alone; EMSA: 20 mM Tris-HCl pH 7.8, 50 mM NaCl, 5 mM MgCl2, 10% glycerol, 5 uM each protein unless stated, room temperature (10 min preincubation, 15 min with probe); conditions: protein: recombinant; tags: tag-free after self-cleavable intein/chitin purification; label: 32P-dA at 3' end of the S42 strand (Klenow fill-in); blunt after Klenow fill-in of S42 (35-mer)
T3 sequence: T1 sequence 2 with E60R

[4] = molecular target: T2, alphaCTD (C-terminal domain of RNA …); experiment: EMSA; EMSA: 20 mM Tris-HCl pH 7.8, 50 mM NaCl, 5 mM MgCl2, 10% glycerol, 5 uM each protein unless stated, room temperature (10 min preincubation, 15 min with probe); conditions: protein: recombinant; tags: tag-free after self-cleavable intein/chitin purification; label: 32P-dA at 3' end of the S44 strand (Klenow fill-in); blunt after Klenow fill-in of S44 (35-mer)
[5] = molecular target: T4, wild-type Spx protein (Bacillus subtilis, UniProt O31602 1-131); experiment: native gel or EMSA; supershift of the αCTD-trxB promoter (-56 to -21) complex; 5 µM Spx and 5 µM αCTD preincubated 10 min at room temperature in 20 mM Tris-HCl pH 7.8, 50 mM NaCl, 5 mM MgCl2, 10% glycerol, then 32P-labelled probe 15 min; 6% native polyacrylamide gel in TGE buffer; no DTT; conditions: both partners purified
T4 construct: Spx of Bacillus subtilis; Made with the self-cleavable intein system (New England Biolabs); also called oxidized Spx; source: E. coli ER2566 (pMMN470), purified (chitin column, High S column)
T4 sequence (looked up): T1 sequence 2 with E60R

B1: trxB promoter (-56 to -21) (dsDNA)
DNA 1: TAATCGTGTTGAGCAAAAAAATAGCGTATCACCATG
DNA 2: CATGGTGATACGCTATTTTTTTGCTCAACACGATTA
binding result [1]: no binding
binding result [2]: binds
binding result [3]: no binding

B2: trxB (-56 to -21) G-44A G-33A (dsDNA)
DNA 1: B1 DNA 1 with G13A, G24A
DNA 2: B1 DNA 2 with C13T, C24T
binding result [4]: binds

binding result [5]: binds
B3: αCTD (residues 225–314) (domain or fragment, Bacillus subtilis, UniProt P20429 225-314, looked up)
chain: T1 sequence 1
notes: RNA polymerase α subunit (RpoA) of Bacillus subtilis, C-terminal domain, residues 225-314; Made with the self-cleavable intein system (New England Biolabs); also called rpoA-CTD; source: E. coli BL21/pLysS (pSN37), purified (chitin column, High Q column)
